In patent publication US20070172470A1, “Phosphatase regulation of nucleic acid transcription” (The Regents of the University of California, priority 2003, published 2007):
Residue numbers refer to the chain shown, from its start. Names may count otherwise.

T1: GST-SCP1 (Homo sapiens, UniProt Q9GZU7)
T1 construct: made in house
T1 sequence (Q9GZU7 1-261): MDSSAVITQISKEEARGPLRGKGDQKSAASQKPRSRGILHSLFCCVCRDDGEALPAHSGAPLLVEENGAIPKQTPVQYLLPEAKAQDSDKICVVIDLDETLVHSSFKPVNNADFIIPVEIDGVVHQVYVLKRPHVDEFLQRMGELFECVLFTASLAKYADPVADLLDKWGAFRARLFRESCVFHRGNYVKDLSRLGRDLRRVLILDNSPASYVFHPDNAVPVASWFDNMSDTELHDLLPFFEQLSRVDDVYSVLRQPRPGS
T1 sequence (P35269 1-517 partner): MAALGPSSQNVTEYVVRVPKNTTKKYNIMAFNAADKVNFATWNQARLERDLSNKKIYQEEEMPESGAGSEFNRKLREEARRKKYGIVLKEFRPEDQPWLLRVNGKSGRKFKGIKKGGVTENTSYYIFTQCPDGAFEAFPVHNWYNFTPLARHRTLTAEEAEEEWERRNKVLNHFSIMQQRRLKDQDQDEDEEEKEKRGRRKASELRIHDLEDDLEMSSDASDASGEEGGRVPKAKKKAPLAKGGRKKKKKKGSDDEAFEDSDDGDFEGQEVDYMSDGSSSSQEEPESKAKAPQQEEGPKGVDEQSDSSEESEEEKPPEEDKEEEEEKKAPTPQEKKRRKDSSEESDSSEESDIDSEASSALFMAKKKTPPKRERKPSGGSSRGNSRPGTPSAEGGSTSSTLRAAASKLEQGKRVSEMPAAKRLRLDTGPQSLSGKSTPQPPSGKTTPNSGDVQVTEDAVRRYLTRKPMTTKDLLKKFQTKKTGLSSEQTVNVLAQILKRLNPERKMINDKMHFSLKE

T2: SCP1 (Homo sapiens, UniProt Q9GZU7)
T2 construct: GST (N, cleaved yes); made in house
T2 sequence (Q9GZU7 1-260 isoform Q9GZU7-2): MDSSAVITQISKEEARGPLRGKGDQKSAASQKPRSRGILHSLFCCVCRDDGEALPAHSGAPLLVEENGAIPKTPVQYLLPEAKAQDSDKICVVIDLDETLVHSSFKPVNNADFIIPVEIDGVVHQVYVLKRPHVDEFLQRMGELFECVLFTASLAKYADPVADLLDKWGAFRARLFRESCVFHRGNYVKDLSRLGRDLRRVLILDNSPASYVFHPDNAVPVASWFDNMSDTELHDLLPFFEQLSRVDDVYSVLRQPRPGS

B1: mutant SCP1: D96E, D98N phosphatase-inactive dominant negative mutant of SCP1 261, SEQ ID NO:10 (protein)
chain: T2 sequence (Q9GZU7 1-260 isoform Q9GZU7-2) with D95E, D97N
modifications: Drosophila
B2: RAP74: RAP74 subunit of TFIIF (protein)
chain: T1 sequence (P35269 1-517 partner)

Key:
[1] = test system: ElALuc, pGL3-Luc and Gal4-TATA-Luc constructs; assay: Luciferase reporter assay, basal promoter activity; assay type: cell-based, human; settings: ElALuc, pGL3-Luc and Gal4-TATA-Luc constructs
Source text: (§1) Gal4-DNA binding domain-SCP1 fusion protein expression plasmids-were cotransfected in HEK293 cells with a Gal 4-TKLuc reporter plasmid and luciferase gene expression quantitated. In all panels, results of triplicate transfections are shown +/− SD. Data is expressed as fold-activation experimental/control). […] The indicated amounts of SCP1 or mutant SCP1 expression plasmids were cotransfected in HEK293 cells along with Gal 4-VP16 expression and Gal 4-TK-Luc reporter plasmids and luciferase activity was quantitated. […] The indicated receptor expression plasmids were cotransfected with their cognate promoter-reporter plasmids with or without SCP1 or mutant SCP1 expression plasmids. Cells were treated or untreated with receptor-specific ligands as described infra. […] The indicated concentrations of SCP1 and mutant SCP1 expression plasmids were cotransfected with LMX1 and E47 expression plasmids and the rat insulin 1 promoter-luciferase reporter gene. Luciferase activity was measured as described.
(§2) Tissue Culture and Transfections: Human 293, COS7 and CV1 cells were grown at 37° C. in DMEM supplemented with 10% normal calf serum (BRL). Sub-confluent cells were transfected in 6 well tissue culture dishes using Effectene (Qiagen) according to the manufacturer's instructions. Reporter and activator plasmids (100 ng each) and Flag SCP1 (80 ng) or its mutant were used per well. […]

RNAP IIO = molecular target: T3, RNAP IIO (Bos taurus, UniProt G3MZY8); assay: CTD phosphatase assay with RNAP IIO as substrate; assay type: biochemical, calf; settings: substrates prepared by MAPK2/ERK2
T3 construct: Calf thymus RNAP IIA was purified; from tissue; host or cells: calf thymus
Protocol: FIGS. 2C and 2D show a CTD phosphatase assay of FCP1 and SCP1 on GST-CTDo and RNAP IIO prepared by MAPK2/ERK2. Increasing amounts of FCP1 or GST-SCP1 214 were assayed in the presence of 75 fmol GST-CTDo (lanes 1-6), 75 fmol RNAP IIO (lanes 7-12), or 75 fmol GST-CTDo and 75. fmol RNAP IIO (lanes 13-18). Both GST-CTDo and RNAP IIO substrates were prepared by the in vitro phosphorylation of CKII-labeled GST-CTDa or RNAP IIA by MAPK2/ERK2. All reactions were carried out in the presence of 7 pmol RAP74. CTD dephosphorylation of both GST-CTDo and RNAP IIO is shown by the increase in mobility of GST-CTDo to GST-CTDa and subunit IIo to IIa, respectively. The difference in the intensity of radiolabeled GST-CTDoand that of radiolabeled subunit IIo is not a reflection of a difference in the amount of substrates present, but of the higher efficiency with which CKII incorporates radiolabeled phosphates onto the most C-terminal serine of GST-CTDa compared to subunit. IIa.
Increasing amounts of GST-SCP1 214 were assayed in the presence of 3.7 fmol RNAP IIO prepared by CTDK1/CTDK2, TFIIH, P-TEFb, MAPK2/ERK2 and Cdc2 kinase. All reactions were carried out in-the presence of 7 pmol. RAP74. CTD dephosphorylation of RNAP IIO isozymes. by qSTSCP1 214 is shown by an increase in mobility of subunit IIo to that of IIa. The results are summarized in the graph showing the percent of RNAP IIO remaining as a function of increasing SCP1 concentrations.
Preparation and Purification of ^32P-RNAP IIO Isozymess and ^32P-GST-CTDo: Calf thymus RNAP IIA was purified by the method of Hodo and Blatti (30) with modifications as described by Kang and Dahmus (31). Specific isozymes of ^32p-labeled RNAP IIO were prepared by phosphorylation at the most C-terminal serine (CKII site) in the largest subunit of purified RNAP IIA with recombinant CKII and […], followed by CTD phosphorylation in the presence of 2 mM ATP with either purified CTDK1/CTDK2, TFIIH, P-TEFb, recombinant MAPK2/ERK2 or recombinant Cdc2 kinase. The RNAP IIO isozymes were individually purified over a DE53 column with a step elution of 500 mM KCl (28). Because only the most C-terminal serine is labeled with ^32p and lies outside. the consensus repeat, dephosphorylation by CTD phosphatase results in an electrophoretic mobility shift in SDS-PAGE of subunit IIo to the position of subunit IIa without the loss of label. Similarly, ^32P-labeled GST-CTDo was prepared from GST-CTDa by CKII followed by MAPK2/ERK2. GST-CTDo was purified over a glutathione-agarose column with a step elution of 15 mM glutathione.
(§3) CTD phosphatase assays utilizing RNAP IIO and GST-CTDo as substrate were performed as described previously (32) with minor modifications. Reactions were performed in 20 μl of CTD phosphatase buffer (50 mM Tris-HCl, pH 7.9, 10 mM MgCl2, 20% glycerol, 0.025% Tween 80, 0.1 mM EDTA, 5 mM DTT) in the presence of 20 mM KCl. Each reaction contained specified amounts of GST-CTDo and/or RNAP IIO and was carried out in the presence of 7 pmol RAP74. Reactions were initiated by the addition of FCP1 or SCP1 and incubated at 30° C. for 30 minutes. Assays were terminated by the addition of 5× Laemmli buffer, and RNAP II subunits and GST-CTD were resolved on a 5% SDS-PAGE gel. The gel images were developed by autoradiography and scanned by Molecular Dynamics Image Scanner Storm 860 in the phosphor screen mode. Data were quantitatively analyzed by ImageQuant software.

[2] = assay type: biochemical; settings: PNθP as substrate
[3] = test system: glucocorticoid receptor activity on GRE-TK-Luc construct; assay: Luciferase reporter assay, dexamethasone-stimulated glucocorticoid receptor; assay type: cell-based, human; settings: 100 nM dexamethasone
Source text: as §1, §2

[4] = test system: Gal 4-TK-Luc reporter stimulated by Gal 4-VP16; assay: Luciferase reporter assay, Gal 4-VP16 stimulated gene expression; assay type: cell-based, human; settings: HEK293 cells
Source text: as §1, §2

[5] = test system: T3 receptor activity on DR+4 TRE-TK-Luc reporter; assay: Luciferase reporter assay, ligand-activated T3 receptor; assay type: cell-based, human; settings: 100 nM T3, DR+4 TRE-TK-Luc
Source text: as §1, §2

[6] = test system: P19 mouse embryonic stem cells; assay: Neuronal differentiation of P19 cells; assay type: cell-based; settings: clonal P19 line, retinoic acid, selective medium
Protocol: P19 cells, C, differentiated GFP expressing P19 cells; D, differentiated SCP1-expressing P19 cells; F, differentiated REST/NRSF-expressing P19 cells. Numbers of NLC per field are shown. *p=0.001 compared to WT 19 cells; **p=0.008 compared to WT P19 cell using student's t-test.
P19 stably expressing REST/NRSF.
These cell lines were maintained in α-MEM/10%FBS with […] G418. To induce neuronal differentiation, P19 cells were allowed to aggregate in bacterial grade petri-dishes (Fisher) at a seeding density of 1×10^5cells/ml in the presence of 1×10^−6M all-trans retinoic acid. After 3 days of aggregation, cells were dissociated into single cells by 0.05% trypsin-0.53 mM EDTA (Gibco). Trypsin was removed by centrifugation and the cells were plated in 6 cm tissue culture dishes (Nunc). at a density of 1×10^5 cells/cm^2 in Neurobasal medium/N2 supplement (Invitrogen) in the presence or absence of 1 μg/ml fibronectin (Invitrogen). The cells were cultured for 5 days after which average cell numbers/field were determined. Cells were either lysed to prepare total RNA (Rneasy kit, Qiagen) or stained with TuJ1 antibody (Babco).
For immunostaining, cells were fixed for 10 mins with 4% paraformaldehyde. TuJ1 antibody was used at 1:2000 and secondary antibody used was FITC-conjuagated anti-mouse (1:3000).

[7] = test system: PPARγ receptor activity on PPARγ promoter response element; assay: Luciferase reporter assay, ligand-activated PPARγ receptor; assay type: cell-based, human
Source text: as §1, §2

GST-SCP1 = molecular target: T1, GST-SCP1; assay: Binding of RAP74 to GST-SCP1; settings: not to GST
SCP1 = molecular target: T2, SCP1; assay: Effect of RAP74 on CTD phosphatase activity of SCP1; assay type: biochemical; settings: 7 pmol RAP74, 14.4 fmol RNAP IIO prepared by TFIIH
Protocol: Increasing amounts of the indicated forms of SCP1 and SCP2 were assayed in the presence of 14.4 fmol RNAP. IIO prepared by TFIIH. Reactions were carried out in the presence and in the absence of 7 pmol RAP74.
as §3

Molecule | increase of luciferase activity [1] | CTD phosphatase activity on GST-CTDo and RNAP IIO (RNAP IIO) | phosphatase activity [2] | dexamethasone-stimulated glucocorticoid receptor activity [3] | enhancement of Gal 4-VP16 stimulated activity [4] | ligand-activated T3 receptor activity [5] | increase of the extent of precursor differentiation into neurons [6] [fold] | ligand-activated PPARγ receptor activity [7] | binding to GST-SCP1 (GST-SCP1) | shift of the dose response curve for SCP1 catalyzed dephosphorylation of RNAP IIO to lower concentration (SCP1)
B1 | 1.5- to 6 fold | lacked activity on either substrate | inactive | significantly enhanced | about 2 fold | enhanced | > 2 | enhanced | – | –
B2 | – | – | – | – | – | – | – | – | bound directly | approximately 10 fold
